Reference: the DeepSol protein solubility set

Assay: soluble on expression in E. coli; label from the status in PepcDB or PDB records

Sequence	soluble on expression in E. coli
MSTFSFIIVNNEQVRIHDIQGKSHMSPYNGKKVNNVEGVVTALDKNGFYIEDNQPDNDPATSEGMYVYKKDANVAVGDLIQVDGVVEEYVGPGYAERFETDLTTTEIKASRVVVIAKDQSLPAPIVLGENGVKIPDQIIDNDAFGLFDPNEDAIDFYESIEGMRVTMPTPKVIAPQKNGNLYVTVKNGGDKIVTQYGTPLLDENQLNPERLSVKVPRDYVAKVGDTFTGDITGVVGYDYGSFRISPITELPAVVDGGFKQVGANIQPRLDKLTVATYNIENFSANKKETTDEKVKALAYSIKYNLKMPDIIGVEEMQDNNGSINDLEHHHHHH	not soluble
MSTGGFQKDQAINILLIGTDKRTGSGNDGYGDKGSAGHADTTLLLHVSKDRSNATALSIPRDLIVDVPDCPTTQEDGSTKVIPGSTGVRFNTSLGQSGRTPSCTMRTVTELTGVTPDNFMVADFNAVKTLSSAVGGVEVCLAKDIDDPDSHLNLPAGKHTVEGEEALAFVRTRHSVGFGGDLSRIELQQQFLSSLMRKLKSNDTLTSPTKMVKLAEAGTDALTVDAKLKSIGKLKDLGLELGKLDTKNLTFATVPVKDNPAEKTPVTVVLKDGPAQQVFDMVKNDVSFTEVKKQEKEKKDKEEAAVAARLEGKKSEPSEVRVRVLNGGASSGSAGRELTYLQNEAGVTKSENAGNAPADIAKTTLEYAPDQADQARALAEILGLTGAAMKPGESVTNSQGLPAMTLTLGKDFKGAGVKLDATSAKAPEDLQKSTADKVECAKLEHHHHHH	soluble
MSTGRTAITQPLRRLMRCSRALRRGTWPCSIGLQGIPIKSTPLQLRSCAQRLTFPGTSTGFLWEVWAMSYLRYVKIIGTVHVSPESVREVRETIIREKPDAIALELDYPRLLALLRRERLTLPQALKLGKMGIFGFILQELEMFFGRSFGESPGEEMIEAYKAAASLGIPVYLIDKPVNETLAGMLSSPPIEKLRFGIEVLASLLPGKLKELDYSYLMKEFREKFPHMYKVLVEERNLYMAINLMRIVDSLLEKKKKVKVVAVVGLGHKKGIERILNAHKPRAVKINSL	not soluble
MSTHGSLSEVERFNLLYKSSFNKVCNFACFYVRNKQASEDITMDAFLQLLETMKVESVDNPMALLITIVKHKSLDYLKTQVRREDTKDDLIQWKQRELAIRISNLEGCNPSYIFSQEIKSIVMKTLNQLPEQTKKVFIMNRFENKSGKEIAQTLGISVKGVDYHMNKALKELRAALKDYLPILTWLCFMNPINKG	not soluble
MSTLKVVSSKLAAEIDKELMGPQIGFTLQQLMELAGFSVAQAVCRQFPLRGKTETEKGKHVFVIAGPGNNGGDGLVCARHLKLFGYNPVVFYPKRSERTEFYKQLVHQLNFFKVPVLSQDEGNWLEYLKPEKTLCIVDAIFGFSFKPPMREPFKGIVEELCKVQNIIPIVSVDVPTGWDVDKGPISQPSINPAVLVSLTVPKPCSSHIRENQTTHYVGGRFIPRDFANKFGFEPFGYESTDQILKL	soluble
MSTNEITKRLPNLTSRRALLLYSLPVLVAIGVSHSLKESSLTKTIALNLPESQVVERILDATTAEVVTPPNFEYQIQAGDNLSTIFSQLGFGYSSLMKVMETDLNYLALDTLKPGNTLRFWRNDATGELEKMELQFSIADKVVYQLNSDGGYDFTDISIPGVWRQEPLVGVIQGSFSSSANRLGLSSAEISQVVSLLKEQVNFGRDLRAGDRFEVVRRSQTINGVSTGKNEIEAIKIYNRGREITAYLHTDGQFYNAKGESLQRAFQRYPVSRSWRISSGFNPNRLHPVTGRVAP	not soluble
MSTNYEAIIIGAGQAGLAAAHELSRRGFTPGKDFLVLDSNDGPGGAWRHRWDSLTLGKAHGIADLPGLPMNRPDPKTPASTLVAGYYGAYENEFSFAVVRPVKVSRVEPTSEDPSSPLRVSSDDGREWITRMVLNATGTWTNPYVPYIPGIDKFQGKQLHTVNYRKAEDFKGKKVLVVGGGLSAVQFLLELEGLAETTWATRRPPNFTQREFDAGWGIAVERAVRERTFNGKAPASVVRTTGIPQIPDYLAGVDRGLIVSRGMFEEITPTGVVFGEPPAERSEGLGPSAGTTLAVPESWKPYPAGTHLDVDVIFWNTGFRAALRHLAPMKLRGQGRGIELIDEVSPASDARVLLVGYGSTASTVGATRAGRVAGRVAAKRLLVDVSPHVNLEHHHHHH	not soluble
MSTPSHLNAQPLVWGHGPRTFEVFLEPTCPYSVRAFNKLDDLLDEVGADNVTIKIRLQSQPWHLFSGVIVRCILAASTLPHGREQAHKVMQAVADHREEFEFTDHCSGPNMNATPQQIIERIERYSHVLLGAAFARPELQDVIKWHSKYARQNGIHVSPTFMVNGLVQPDLGSGDDVSVWAARIMA	not soluble
MSTPYVSVIGKITGIHKKEYESDGTTKSVYQGYIEDDTARIRISSFGKQLQDSDVVRIDNARVAQFNGYLSLSVGDSSRIESVNVNIPLEHHHHHH	not soluble
MSTQYETQGYTINNAGRRLVVDPITRIEGHMRCEVNINDQNVITNAVSCGTMFRGLEIILQGRDPRDAWAFVERICGVCTGVHALASVYAIEDAIGIKVPDNANIIRNIMLATLWCHDHLVHFYQLAGMDWIDVLDALKADPRKTSELAQSLSSWPKSSPGYFFDVQNRLKKFVEGGQLGIFRNGYWGHPQYKLPPEANLMGFAHYLEALDFQREIVKIHAVFGGKNPHPNWIVGGMPCAINIDESGAVGAVNMERLNLVQSIITRTADFINNVMIPDALAIGQFNKPWSEIGTGLSDKCVLSYGAFPDIANDFGEKSLLMPGGAVINGDFNNVLPVDLVDPQQVQEFVDHAWYRYPNDQVGRHPFDGITDPWYNPGDVKGSDTNIQQLNEQERYSWIKAPRWRGNAMEVGPLARTLIAYHKGDAATVESVDRMMSALNLPLSGIQSTLGRILCRAHEAQWAAGKLQYFFNKLMTNLKNGNLATASTEKWEPTTWPTECRGVGFTEAPRGALGHWAAIRDGKIDLYQCVVPTTWNASPRDPKGQIGAYEAALMNTKMAIPEQPLEILRTLHSFDPCLACSTHVLGDDGSELISVQVR	not soluble
MSTSAGSSGAAASEPTTAKSLTYSETMNDLRKGSLFGRQKESLATTDGGPQPSSLDDKSQQFKNPIESDKPGPSTEPGRSAKIEQEAPAPTLKKSETPPAFGLSGVVKKVPSVYFPIFNKLGVKIPGFLPSLRETKINAPHIVYDVRRLRLLQKRQRPIKQLWLRLQFQLRFQMQLLKAQTKSSRVPDNASAVMWLHYIEVIEDHCTADC	not soluble
MSTSVKHREFVGEPMGDKEVTCIAGIGPTYGTKLTDAGFDKAYVLFGQYLLLKKDEDLFIEWLKETAGVTANHAKTAFNCLNEWADQFM	not soluble
MSTSWRIRIMLTIHAKLVEAMLAQAHKDHPFEICGVIAGPEKSNLPLRLIPMRNAAQSETFFKFDPQEQLQVWREMEARGEEPIVIYHSHTHTPAYPSRTDVQYASQPQSHYVIVPTDPAYGEEIRSFRILDGMVTEERIRMINSYKAEWELSMEAMVALEHHHHHH	soluble
MSVIIRLKNLPMTAGASDVRTFFTGLKIPDGAVHIIGGDEGEVFVGFSSDDDARLAMTKDRLMIHGAEVRLFLSSKSEQNSVIAARKNNTYTSPVYKEYVPPVPSQPTPAQEQNWNSQTAGNPYAAKAGYEASYPPQNSNATRTSFNNQNSYSNRQEISQNHQENSVKLKDPFGGDYGGYKFQQQPPPQINRYGSGPPPSKPADLSNTRSLPPVNNPPPPHPIPQFPPEKQFGNKLGNNNDVSSRENHIQGSGNERVQGGDSWRDTSFNQPPRNDFKGNYNNAYSSNKYKNNYKAPEFNNDFNGGNKFNQFPPRNAQSTDLSENRAAPPQTGRKTLMPTPQAPFQNAPAPFTNGPSDDVNRPFQTGPPGNLGRNGPPPFQAGVPPPVIQNNMGRPIAPPAAMVRPPPQNFPGGAGGALPVFQAPVMTPIVPPVNKPMGAAAVEKFYIELTRLPTDLLRPAALEAFIHPTAPLTLSSVKTVFGPGGIHMHTIIRLDSIADYATMMRRNGEQGIKIQQSDKKSFDTAIDGIPIPSVSMVPSKEQRSHEDDDKKSRRSRWENTSPIRSPRRSPLRRDNRDRSRSRSPPRRRRRSRSPRRREEHTDPTRWCVQVTNVPFRMKDEELLEWFSEKVRPAKLTRTFYSDGNASDRWVAEFSSESLMKRSFGIRTLCTGRTLRLRYIDNAKADEILKIEDVYGEGKRQMNEEARLQHEVAEKANPPSFFNAPAATRGSGPMPPLNGTAPLPSGQQNGMNVPPPNGFNGAPMRGGFVPRGGNNFSQSRGGMMGRGGHGGGGGPQNFYQNGPNNFNNGPPEQQGQFRGNQGNDGGFRGGFRGGYRGRGGGRGGFQGGSRGDDSQPSQSELMELIKSIGPRGTVLSCNGFPKDVTLEDVVEFFNDYEPDRNSIRIRRGDDGVMTGECMLACQNQENARRASMDLDGQKLRNSVISVRII	not soluble
